In the supplement of paper PMC12042874 one finds amyloid nucleation score data, which are given here for 134 substances.

± gives the uncertainty stated by the source.

The nature of the data set: amyloid nucleation score (Sup35N fusion, yeast selection) (log enrichment); library NNK3; higher = more nucleation; inactive = no reads after selection. The gist of the method: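 Growth for 7 days at 30°C on medium lacking adenine and uracil followed a 24-hour induction with 100 μM copper sulfate of psi-negative yeast expressing peptides of 20 random codons fused to Sup35N. Input and output plasmid inserts were sequenced with Illumina, and sequences with under 100 input reads were excluded. Nucleation score is the DiMSum log enrichment of output over input reads, centred on the mode score of non-aggregating sequences.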
SVDCYCTKKTYMQWSGSVRH came in with an amyloid nucleation score of 0.66 ± 0.23.
As to KTSIRRCLSIRC, the amyloid nucleation score result was “inactive”.
For GPIYWLLKGQNFESRVDTNL the value was “inactive”; for NSRNLR, “inactive”.
Substance NMRVCCIGNSFSMGYLICWY came in with an amyloid nucleation score of 2.47 ± 0.057.
As to RYDLCLDLALLRGNWWDLYL, the amyloid nucleation score entry is “inactive”.
As for LGGCPSNDGSFYVSSSLLHV, the amyloid nucleation score entry is “inactive”.
AGFSVVSRPLFVRQLPV: the amyloid nucleation score entry was “inactive”.
Take TVNPMIVDPCNW: the amyloid nucleation score result is “inactive”.
For MQWNWEGSLYMKIMSGMCHP the value was 1.02 ± 0.15; for GPFARNS, “inactive”; for SFCWASKSVHRSRG, “inactive”.
With YANQHSPEHQRLSSRLVGTN the entry was “inactive”; with VCNYEVVAVIRDE, “inactive”.
For QVSFM the value was “inactive”; for VLSTVFKAKPNHNRAFMG, 0.063 ± 0.78.
SLATSYVNFILCRLLKFDHT: the amyloid nucleation score entry was “inactive”.
Regarding TFSDVGLFYLTQYDKVPFDL, the amyloid nucleation score entry was “inactive”.
For CVSNISSFGKLEFTYVIEVW the value was “inactive”; for WVGGPQNQRPANWTFGMWFH, “inactive”.
With NLSWKGNAQDCLMGSVL the entry was “inactive”.
With CFFLYCLNFFMRSIERDRDG the figure was 2.24 ± 0.054; with VVWLQFGMEVKSSFSMTSKT, “inactive”; with YFRSK, “inactive”.
As to VTILYASASMESLSLGLCGT, the amyloid nucleation score entry is “inactive”.
Take CFAYCFLSLFEMRIWTN: the amyloid nucleation score is -0.074 ± 0.64.
As to AELVNIF, the amyloid nucleation score result is “inactive”.
For LFGTNQYYNY the value was “inactive”; for GSHELHWSVGYQESVLLRYH, “inactive”; for SYCWRVSHGEYH, “inactive”.
VCLLIRPID: the amyloid nucleation score entry is “inactive”.
With QPLHCK the entry was “inactive”; with FMYILWRVSKKLFIALMWFR, “inactive”.
Consider NTDPTQVFQASN, for which the amyloid nucleation score entry was “inactive”.
With AAMHLDILNGTATRLSYSCA, the amyloid nucleation score entry was “inactive”.
With LFNDLVAHKGPDYITYATCV the entry was “inactive”; with RFDESTRVCV, “inactive”.
As for RHTPDSLQYFLVFKVSYGFL, the amyloid nucleation score entry is “inactive”.
For KSQLFLMWSSSKLLTYTVQA, the amyloid nucleation score entry was “inactive”.
For VTLTN the value was “inactive”; for GTNFALRHGMIILSRLWAYW, “inactive”; for CFSYSLGVLVTYRGCYRSVL, “inactive”.
In the case of VPFVGLLSLALAFYSIKNSN, the amyloid nucleation score amounted to 0.921 ± 0.23.
For WDWWN the value was “inactive”; for YFLYMCALTHRWFWFKFFER, “inactive”; for FSTQRLNG, “inactive”.
On to NFKLLLTSPWYATV, for which the amyloid nucleation score result was “inactive”.
As to HDYDAIRRLSRMCDVVEYSR, the amyloid nucleation score result was “inactive”.
For IHPVNLRVLSFGHIWCWYLR the value was “inactive”.
With NWSSRFMTT, the amyloid nucleation score entry was “inactive”.
For the substance TDISLCNLGKHKVLRGL, the amyloid nucleation score entry was “inactive”.
Consider RCVRVIFSVMGDWVFISKNE, for which the amyloid nucleation score result was “inactive”.
With YMLSGPRWFV the entry was “inactive”.
Consider LWPIGIFKKCYVDRICYYCV, for which the amyloid nucleation score entry was “inactive”.
With IVVLNVNTPWSMFQGVGSIQ the figure was 2.58 ± 0.085.
As to SKMLIWSYLHGGNRCDLSDW, the amyloid nucleation score entry was “inactive”.
As for SDPVPVMDIALYLVNPQLPS, the amyloid nucleation score result is “inactive”.
Take WALTRLRAPPF: the amyloid nucleation score entry is “inactive”.
RLICLMGSLW came in with an amyloid nucleation score of 1.34 ± 0.081.
As to VRRIIML, the amyloid nucleation score result was “inactive”.
Consider SVLHLWGLDYFNGEYTMRKG, for which the amyloid nucleation score turned out to be 1.02 ± 0.17.
The substance KCTFFDTCVTQTCLFNMFGC came in with an amyloid nucleation score of 2.34 ± 0.063.
For SNLCGFCRSHVIKVMLLLSA the value was “inactive”.
With VYTMVTMIDGIELFRWNLWS the entry was “inactive”; with QRNNFLLTMVTCFDLKL, “inactive”.
On to KSVNLHA, for which the amyloid nucleation score entry was “inactive”.
As for SWKVTMKPGNFWV, the amyloid nucleation score result was “inactive”.
For SSCNLIWCFSSDAILKPLMQ the value was 1.38 ± 0.093; for TIEFWGRVAGFLLM, “inactive”.
With CVLRAFATVKHFTSGLCSCG the entry was “inactive”; with MWRPSHTYCLSNGKVECREC, “inactive”; with IMNHLLSRVVCFLDKIVHMG, “inactive”.
For SFHSPYL, the amyloid nucleation score result was “inactive”.
With GNMCDRTYLRMMLFHCRMPS the entry was “inactive”; with KLGIGFPWCGRLHIEHSKMR, “inactive”; with ILYLVR, “inactive”.
HMCIG: the amyloid nucleation score entry is “inactive”.
For the substance VVWASV, the amyloid nucleation score entry was “inactive”.
On to WYACRIQ, for which the amyloid nucleation score was determined as 0.517 ± 0.23.
With SMCPLYFINHAIAVDAMKFF the entry was “inactive”.
For CRWNVNNFPHLFITKMMFRY the value was “inactive”; for FESSGAGRFRSIWYGYMRVF, “inactive”; for SWNVFFFSGFRVPYYALTGV, 0.254 ± 0.82.
In the case of LCRLGSSRSVSGVRLGCTLR, the amyloid nucleation score result was “inactive”.
With QMSFQSSYQVRLFLVPPFQW the figure was 0.412 ± 0.23; with KCMFMEDCPLPEWSDLEVGL, “inactive”; with LYISNFANEINA, “inactive”.
With QWGSWE, the amyloid nucleation score entry was “inactive”.
As to AYIKWNVDCRLKTHNDGYFL, the amyloid nucleation score entry is “inactive”.
For VYIRSFRSCTWRSLPMRIRY, the amyloid nucleation score result is “inactive”.
RTLQVWHDWVVG: the amyloid nucleation score is -0.555 ± 0.69.
With RARGDTIK the entry was “inactive”.
For NSVRLFKNFQWWAFSRHSRL the value was “inactive”.
Regarding WGSEFIDTKFA, the amyloid nucleation score result was “inactive”.
With RGAIIFGKTMIYDSC, the amyloid nucleation score entry was “inactive”.
For NRIVQAFPSIGGFATNVCLC, the amyloid nucleation score result was “inactive”.
For YTILVCYSAGVAYYNKGLVR the value was “inactive”; for LLTSLDPDYSSPWCYSVDIC, “inactive”.
With ARLVAGCVMCHGSLWEMIRE the figure was 0.572 ± 0.28.
For LKTVSMSYD the value was “inactive”; for VRCSR, “inactive”.
On to VHVRLQAPFPEAL, for which the amyloid nucleation score result is “inactive”.
Regarding YYIIWRFQGIVLKYGTALTF, the amyloid nucleation score result is “inactive”.
On to MRASCCKCVHICTYMSDRFD, for which the amyloid nucleation score worked out at 0.743 ± 0.22.
For NLPLKFDTFTFLCVRLNSLS the value was “inactive”.
Take FDVRDRSRIGLSMTITWMKI: the amyloid nucleation score result is “inactive”.
THTSAKDHRVDWLSQL: the amyloid nucleation score result was “inactive”.
With GIFKFMAV the entry was “inactive”; with HITLRYLNL, 0.692 ± 0.12.
NYRPRKKVFGLR: the amyloid nucleation score was -0.005 ± 0.88.
For GFSYMLVFSNGVYMLIRIRW the value was “inactive”.
For ANAISWGYLIKDYS the value was “inactive”; for GDLGDVPGRWDWNKSWFVNY, “inactive”.
With YHGVLRWSKSTFAAHYPVTA the entry was “inactive”; with ATTVNGFIISHRVYNAGSWY, 1.28 ± 0.1.
Turning to PLFNRYVSF, the amyloid nucleation score entry is “inactive”.
Take INMRFIQKRMFVYLNYSWYA: the amyloid nucleation score result was “inactive”.
For MKLCNVRGIKVFAFCSGSRR the value was 1.3 ± 0.1; for EMFYSVCFIYRIMFT, 1.25 ± 0.089.
GSNYSWSLLL: the amyloid nucleation score entry was “inactive”.
Turning to ILFSISSVMF, the amyloid nucleation score is 0.605 ± 0.19.
For WWVRQNVRWVLACVDFSTFS the value was “inactive”; for QNHSNVGTFDDSA, “inactive”; for LSKQIVIRINSNNCNGSVFF, 2.7 ± 0.049.
With FYPKLPTLSVQDVGHRKPST the entry was “inactive”.
With SALLQAIF the entry was “inactive”.
For the substance QYVCVRS, the amyloid nucleation score result was “inactive”.
On to PGRYFMHLLELV, for which the amyloid nucleation score result is “inactive”.
With KGLCL the entry was “inactive”; with AIFHGIRCSFMSSSLYTNDG, “inactive”; with PIFFMIVYAVATYCKEGSHS, “inactive”.
In turn, PGDFISDEAMDSNVYFRLQS gave an amyloid nucleation score of -0.693 ± 0.8.
With KRLHTS, the amyloid nucleation score entry is “inactive”.
With CFVFTFGT the figure was 1.38 ± 0.082.
